Laboratory results published in publication PMC8844075, “Structural basis of neuropeptide Y signaling through Y1 receptor” (Nature Communications, 2022).

biological target: Y1R-eYFP (wild-type Y1R) (human) (UniProt P25929)
Sequence (P25929 whole entry): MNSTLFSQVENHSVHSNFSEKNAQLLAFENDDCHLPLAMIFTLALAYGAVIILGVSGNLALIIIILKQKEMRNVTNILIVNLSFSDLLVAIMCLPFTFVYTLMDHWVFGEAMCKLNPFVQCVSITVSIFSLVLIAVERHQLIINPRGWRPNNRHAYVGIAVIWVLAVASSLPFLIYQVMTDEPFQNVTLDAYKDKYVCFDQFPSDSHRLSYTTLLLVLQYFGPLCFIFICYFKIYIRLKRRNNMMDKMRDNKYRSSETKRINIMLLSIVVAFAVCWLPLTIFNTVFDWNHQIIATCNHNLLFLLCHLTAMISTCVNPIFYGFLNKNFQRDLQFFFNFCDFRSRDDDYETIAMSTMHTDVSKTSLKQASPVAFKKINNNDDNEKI

Chain of PYY(3–36) (P10082 31-64): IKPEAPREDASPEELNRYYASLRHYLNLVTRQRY
Chain of peptide YY (PYY) (P10082 29-64): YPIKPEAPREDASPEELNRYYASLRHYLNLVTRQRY

Question: Which Ca2+ signalling assay in HEK293T cells, EC50 does the source give for “PYY(3–36) (from UniProt P10082 31-64) (peptide)” here?
Answer: 0.077 µM

Question: “peptide YY (PYY) (from UniProt P10082 29-64)” was tested. Which Ca2+ signalling assay in HEK293T cells, EC50 did it give?
Answer: 0.0061 µM

Question: For “NPY(3–36) (from UniProt P01303 31-64) (peptide)”, which Ca2+ signalling assay in HEK293T cells, EC50 is on record?
Answer: 0.086 µM
